Measured values published in paper PMC5716730.

Target: Cartilage oligomeric matrix protein (COMP), full-length, stably overexpressed in prostate cancer cells (human) (UniProt P49747)
Test: non-reducing SDS-PAGE with western blot; concentrated conditioned medium (Opti-MEM, 2 days) of transfected cells on a 5% non-reducing SDS-PAGE gel, blotted with anti-human COMP; under reducing conditions (10% gel) a sharp band of 130 kDa

Cartilage oligomeric matrix protein (COMP), full-length, stably overexpressed in prostate cancer cells, P49747 21-757 (natural protein; other documents disagree on this pair), sequence (P49747 21-757): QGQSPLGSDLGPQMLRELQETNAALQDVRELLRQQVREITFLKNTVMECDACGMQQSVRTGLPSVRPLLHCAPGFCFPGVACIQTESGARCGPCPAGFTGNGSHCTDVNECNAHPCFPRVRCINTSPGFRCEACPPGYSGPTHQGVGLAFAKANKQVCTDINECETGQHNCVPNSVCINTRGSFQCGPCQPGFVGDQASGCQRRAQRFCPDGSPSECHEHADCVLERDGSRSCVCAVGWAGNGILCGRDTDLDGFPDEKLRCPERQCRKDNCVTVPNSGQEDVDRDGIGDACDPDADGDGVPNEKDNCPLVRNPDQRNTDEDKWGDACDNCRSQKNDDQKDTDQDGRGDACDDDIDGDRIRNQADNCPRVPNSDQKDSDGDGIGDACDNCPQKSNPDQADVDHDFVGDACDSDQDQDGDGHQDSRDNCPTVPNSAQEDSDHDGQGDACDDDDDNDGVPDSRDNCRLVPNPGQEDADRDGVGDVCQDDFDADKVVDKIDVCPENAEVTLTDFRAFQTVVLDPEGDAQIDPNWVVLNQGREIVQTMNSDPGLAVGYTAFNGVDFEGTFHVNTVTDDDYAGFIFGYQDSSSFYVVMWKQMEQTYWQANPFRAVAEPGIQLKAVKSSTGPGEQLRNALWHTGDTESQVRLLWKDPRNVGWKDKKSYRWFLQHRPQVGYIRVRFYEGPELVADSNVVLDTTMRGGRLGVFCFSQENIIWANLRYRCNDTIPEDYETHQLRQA

Cartilage oligomeric matrix protein (COMP), full-length, stably overexpressed in prostate cancer cells, P49747 21-757 (natural protein; other documents disagree on this pair)
stoichiometry N: 5
